Laboratory results taken from patent US20240010750A1 (Bayer, published 2024).

Columns and labels:
[1] = biological target: T1, rabbit alpha2-Antiplasmin (rabbit (Oryctolagus cuniculus)); assay: ELISA (Example 3): antigen coated at 1 ug/ml, detection with anti-human lambda light chain-peroxidase and Amplex Red, RFU [right panel]
T1 construct: Made in house in HEK293 cells, purified by Ni-IMAC and SEC (a His tag is implied but not described); also called rabbit A2AP; Oryctolagus cuniculus A2AP
T1 chain: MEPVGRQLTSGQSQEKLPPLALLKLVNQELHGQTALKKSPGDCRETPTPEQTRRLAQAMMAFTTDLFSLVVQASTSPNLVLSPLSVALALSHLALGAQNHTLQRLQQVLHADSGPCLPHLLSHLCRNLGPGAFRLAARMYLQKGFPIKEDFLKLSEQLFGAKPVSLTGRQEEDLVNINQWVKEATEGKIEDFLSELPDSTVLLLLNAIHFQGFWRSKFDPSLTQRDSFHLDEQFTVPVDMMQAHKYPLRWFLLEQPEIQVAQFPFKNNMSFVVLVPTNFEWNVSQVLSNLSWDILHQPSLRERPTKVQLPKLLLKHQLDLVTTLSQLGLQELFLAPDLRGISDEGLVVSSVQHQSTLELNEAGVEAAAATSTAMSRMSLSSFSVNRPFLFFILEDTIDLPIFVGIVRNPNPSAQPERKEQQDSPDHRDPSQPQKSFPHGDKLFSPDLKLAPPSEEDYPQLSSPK
Protocol: (§1) A standard ELISA format was used for analyzing the binding affinity of Fabs of this invention to human and rabbit alpha-2-Antiplasmin, respectively. Antigens were coated to black 384 well Maxisorp microtiter plates (Nunc; catalogue number 460518), diluted to a concentration of 1 μg/ml in 1× Coating Buffer (Candor Bioscience; catalogue number 121125). Plates were incubated overnight at 4° C. After overnight incubation, plates were washed 2× with 50 μl/well using PBS+0.05% Tween 20. Following this, 50 μl/well of blocking buffer (Smart Block; Candor Bioscience; catalogue number 113500) was added and the plates were incubated for 1 hour at room temperature. Afterwards, plates were washed for 3× using […] PBS+0.05% Tween 20 buffer. Fabs of this invention were added at different concentrations in a final volume of 30 μl/well. Plates were incubated for 1 hour at room temperature. Following this incubation step, plates were washed for 3× using 50 μl/well of a PBS+0.05% Tween 20 buffer. For the detection of bound Fabs and full-length antibodies, the anti-Human Lambda Light Chains (Bound and Free)—Peroxidase antibody (Sigma; catalogue number A5175) was diluted by the factor of 1:10.000 in 10% Blocking Buffer. […]
For measurement, the Infinite f500 reader (Tecan) was used. Measurement mode: Fluorescence; Top reading; Ex 535 nm; Em 590 nm.

human alpha2-Antiplasmin [2] = biological target: T2, human alpha2-Antiplasmin (human, UniProt P08697 40-491); assay: ELISA (Example 3): antigen coated at 1 ug/ml, detection with anti-human lambda light chain-peroxidase and Amplex Red, RFU [left panel]
T2 construct: Bought (antibodies online, ABIN2544306); also called human A2AP; a2AP
T2 sequence: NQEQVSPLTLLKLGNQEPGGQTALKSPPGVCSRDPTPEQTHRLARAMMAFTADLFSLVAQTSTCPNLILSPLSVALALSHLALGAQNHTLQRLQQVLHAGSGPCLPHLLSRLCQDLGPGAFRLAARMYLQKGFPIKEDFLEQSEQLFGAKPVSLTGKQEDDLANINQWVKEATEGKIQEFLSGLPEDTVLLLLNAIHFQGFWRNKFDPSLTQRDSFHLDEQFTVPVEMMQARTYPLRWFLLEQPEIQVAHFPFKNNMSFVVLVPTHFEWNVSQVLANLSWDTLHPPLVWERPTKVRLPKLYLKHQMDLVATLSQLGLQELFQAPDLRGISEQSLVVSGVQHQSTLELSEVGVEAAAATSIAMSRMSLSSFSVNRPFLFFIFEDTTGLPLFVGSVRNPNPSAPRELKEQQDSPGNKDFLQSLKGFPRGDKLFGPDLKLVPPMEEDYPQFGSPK
Protocol: Binding activities towards human alpha2-Antiplasmin are shown in the left panel, towards rabbit alpha2-Antiplasmin are shown in the right panel of this figure. The binding activities were calculated as EC50 in M values.
as §1, with “buffer.” for “buffer. For the detection of bound Fabs and full-length antibodies, the anti-Human Lambda Light Chains (Bound and Free)—Peroxidase antibody (Sigma; catalogue number A5175) was diluted by the factor of 1:10.000 in 10% Blocking Buffer.”
For measurement, the Infinite f500 reader (Tecan) was used.

[3] = biological target: T3, cynomolgus alpha2-Antiplasmin (cynomolgus (Macaca fascicularis), UniProt P08697 28-491 (human entry)); assay: SPR Biacore T200, antibody captured on protein G chip, A2AP as analyte, 25 C
T3 construct: Made in house in the same way as the rabbit protein; also called cynomolgus A2AP; Macaca fascicularis A2AP
T3 chain: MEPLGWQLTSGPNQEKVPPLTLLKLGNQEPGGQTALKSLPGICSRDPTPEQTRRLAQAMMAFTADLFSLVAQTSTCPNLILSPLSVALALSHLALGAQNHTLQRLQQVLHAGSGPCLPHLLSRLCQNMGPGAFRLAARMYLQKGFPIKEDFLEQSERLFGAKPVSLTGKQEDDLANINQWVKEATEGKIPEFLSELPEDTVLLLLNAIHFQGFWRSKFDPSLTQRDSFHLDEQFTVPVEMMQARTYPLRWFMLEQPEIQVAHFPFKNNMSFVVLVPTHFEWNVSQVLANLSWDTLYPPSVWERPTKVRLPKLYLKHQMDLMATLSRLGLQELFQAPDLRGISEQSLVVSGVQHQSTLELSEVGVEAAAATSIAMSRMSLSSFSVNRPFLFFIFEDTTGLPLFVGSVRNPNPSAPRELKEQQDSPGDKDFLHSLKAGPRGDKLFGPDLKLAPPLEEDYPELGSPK

[4] = biological target: T1, rabbit alpha2-Antiplasmin; assay: as above
human alpha2-Antiplasmin [5] = biological target: T2, human alpha2-Antiplasmin; assay: as above
[6] = biological target: T3, cynomolgus alpha2-Antiplasmin; assay: cell-based or functional assay

- EC50 (read off the curve) [1]: ~6 nM
- EC50 (read off the curve) (human alpha2-Antiplasmin [2]): ~100 nM
- Kd [3]: 100 nM
- Kd [4]: 43 nM
- Kd (human alpha2-Antiplasmin [5]): 180 nM
- EC50 (read off the curve); function blocking assay (Example 4), RFU of plasmin substrate cleavage [6]: ~200 nM
B1: TPP-12387 hIgG1 (antibody, V domains shown)
VH: EVQLLESGGGLVQPGGSLRLSCAASGFTFDDYAMSWVRQAPGKGLEWVSAIGTGGGTYYADSVKGRFTISRDNSKNTLYLQMNSLRAEDTAVYYCAREYYDSSGYYHLDYWGQGTLVTVSS
VL: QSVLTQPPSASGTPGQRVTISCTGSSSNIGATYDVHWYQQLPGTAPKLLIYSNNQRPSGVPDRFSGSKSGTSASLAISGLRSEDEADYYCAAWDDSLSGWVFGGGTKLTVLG
notes: Fully human IgG1 lambda from the BioInvent n-CoDeR Fab lambda library; parental lead antibody
